From US20260216242A1 (ALMAC DISCOVERY, published 2026)

T1: Human ALPPL2 (leucine zipper) (human)
T1 construct: Whole entry: fused with a cysteine stabilised leucine zipper and His tag; also called hALPPL2
T1 chain: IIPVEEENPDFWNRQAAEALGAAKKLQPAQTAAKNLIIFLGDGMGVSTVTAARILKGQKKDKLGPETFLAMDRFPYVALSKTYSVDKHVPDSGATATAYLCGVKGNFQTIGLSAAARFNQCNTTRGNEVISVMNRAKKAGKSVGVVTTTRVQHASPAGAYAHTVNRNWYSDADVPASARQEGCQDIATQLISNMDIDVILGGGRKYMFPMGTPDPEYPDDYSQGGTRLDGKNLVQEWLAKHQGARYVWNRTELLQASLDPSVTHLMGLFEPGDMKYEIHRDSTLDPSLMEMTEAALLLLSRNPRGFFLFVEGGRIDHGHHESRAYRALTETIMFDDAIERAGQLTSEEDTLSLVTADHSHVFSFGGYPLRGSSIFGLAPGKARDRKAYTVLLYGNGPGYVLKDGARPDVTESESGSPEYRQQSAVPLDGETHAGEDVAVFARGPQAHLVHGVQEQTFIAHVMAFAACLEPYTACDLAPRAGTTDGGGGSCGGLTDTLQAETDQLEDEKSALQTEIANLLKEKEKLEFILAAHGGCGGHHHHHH

T2: Human ALPL (leucine zipper) (human)
T2 construct: Whole entry: fused with a cysteine stabilised leucine zipper and His tag; also called hALPL
T2 chain: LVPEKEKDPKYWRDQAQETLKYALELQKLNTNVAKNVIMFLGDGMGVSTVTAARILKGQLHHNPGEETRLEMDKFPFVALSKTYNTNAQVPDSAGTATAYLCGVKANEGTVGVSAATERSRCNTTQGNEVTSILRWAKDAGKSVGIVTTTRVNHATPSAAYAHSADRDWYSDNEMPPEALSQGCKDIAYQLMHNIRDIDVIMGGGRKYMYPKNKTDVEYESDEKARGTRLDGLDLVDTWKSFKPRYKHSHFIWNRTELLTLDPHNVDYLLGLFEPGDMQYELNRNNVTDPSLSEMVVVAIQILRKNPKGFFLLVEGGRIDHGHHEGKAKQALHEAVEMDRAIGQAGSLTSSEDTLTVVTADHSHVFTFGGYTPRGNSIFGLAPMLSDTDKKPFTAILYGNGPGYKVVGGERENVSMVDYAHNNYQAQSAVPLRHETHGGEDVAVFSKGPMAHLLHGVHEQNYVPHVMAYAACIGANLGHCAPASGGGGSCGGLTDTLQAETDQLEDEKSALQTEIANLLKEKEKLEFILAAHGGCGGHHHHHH

T3: Human ALPP (leucine zipper) (human)
T3 construct: Whole entry: ALPP fused with a cysteine stabilised leucine zipper and His tag; also called hALPP
T3 chain: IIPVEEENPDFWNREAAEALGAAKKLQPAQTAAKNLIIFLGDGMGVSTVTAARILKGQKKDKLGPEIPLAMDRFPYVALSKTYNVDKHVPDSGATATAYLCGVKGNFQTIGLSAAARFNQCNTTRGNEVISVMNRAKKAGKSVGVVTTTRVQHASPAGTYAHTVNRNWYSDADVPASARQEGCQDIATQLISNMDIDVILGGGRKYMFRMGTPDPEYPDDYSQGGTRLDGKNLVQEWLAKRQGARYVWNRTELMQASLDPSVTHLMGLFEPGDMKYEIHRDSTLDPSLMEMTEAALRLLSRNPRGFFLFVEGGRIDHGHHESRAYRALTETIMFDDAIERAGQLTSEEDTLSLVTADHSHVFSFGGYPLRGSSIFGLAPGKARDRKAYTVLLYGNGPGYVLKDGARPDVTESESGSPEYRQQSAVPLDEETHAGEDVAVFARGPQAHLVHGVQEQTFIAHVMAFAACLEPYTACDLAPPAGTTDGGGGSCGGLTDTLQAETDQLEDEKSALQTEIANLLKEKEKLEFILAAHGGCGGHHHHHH

T4: ALPI His homodimer (human, UniProt P09923 20-503)
T4 construct: Whole entry with His tag; used in ELISA and BLI; also called hALPI
T4 sequence: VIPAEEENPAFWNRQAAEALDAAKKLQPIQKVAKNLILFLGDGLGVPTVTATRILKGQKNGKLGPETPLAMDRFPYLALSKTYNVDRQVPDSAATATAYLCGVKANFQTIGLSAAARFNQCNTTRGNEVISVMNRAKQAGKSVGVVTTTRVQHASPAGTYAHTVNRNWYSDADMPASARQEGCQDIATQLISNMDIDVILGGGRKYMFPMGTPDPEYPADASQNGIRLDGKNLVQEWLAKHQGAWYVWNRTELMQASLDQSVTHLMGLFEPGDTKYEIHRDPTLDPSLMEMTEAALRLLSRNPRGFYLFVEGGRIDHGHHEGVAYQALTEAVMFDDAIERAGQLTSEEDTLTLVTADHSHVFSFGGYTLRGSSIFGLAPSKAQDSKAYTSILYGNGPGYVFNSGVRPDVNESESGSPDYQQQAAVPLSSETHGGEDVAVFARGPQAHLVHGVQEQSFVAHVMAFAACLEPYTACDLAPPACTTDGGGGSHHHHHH


Key:
[1] = target: T1, Human ALPPL2 (leucine zipper); assay: BLI, antigen immobilised
Experimental: (§1) Binding kinetics were determined using the Biolayer Interferometry (BLI) Octet K2 system (Sartorius). […] All assays were conducted in PBS with a plate temperature of 25° C. Ka (M⁻¹s⁻¹), Kd (s⁻¹) and KD (nM) values were determined using Octet Data Analysis High Throughput software (ForteBio) for Biolayer Interferometry.

[2] = target: T2, Human ALPL (leucine zipper); assay: BLI, antigen immobilised
Experimental: as §1

[3] = target: T3, Human ALPP (leucine zipper); assay: BLI, antigen immobilised
Experimental: as §1

ALPI His homodimer = target: T4, ALPI His homodimer; assay: ELISA, antigen coated
Source text: ELISA was used to test the binding and specificity of the VHHs. […] Anti-Llama—HRP antibody was used for detection.

Row | Binder | Kd [1] | binding result [2] | Kd [3] | koff [3] | kon [3] | koff [1] | kon [1] | binding result (ALPI His homodimer)
1 | D04 His (VHH, not shown: small tags and cut ends) VHH: QVQLVESGGGLVQPGGSLRLSCAASESTFSINVMGWYRQAPGKQRELVATITSGDITNYADSVKGRFTISRDNAENTVYLRTNSLKPEDTAVYYCNARGEYHSGNEYDYWGQGTQVTVSS | 2920 pM | no binding | < 10 pM | < 1e-07 s⁻¹ | 85100 M⁻¹ s⁻¹ |  |  | 
2 | C07 His (VHH, not shown: small tags and cut ends, also called #258) VHH: QVQLVESGGGLVQAGESLRLACAASGTIFSGNAVGWYRQAPEKQREWVSSITDYGDTDYAEAVKGRFTISRDNAKNTVYLQMNSLKPEDTAVYYCYVYQRGESEEYWGQGTQVTVSS | 610 pM | no binding | 220 pM | 2.8e-05 s⁻¹ | 129000 M⁻¹ s⁻¹ | 0.000288 s⁻¹ | 471000 M⁻¹ s⁻¹ | no binding (tested: 500 ng VHH)
3 | A05 His (VHH, not shown: small tags and cut ends, also called #249) VHH: QVQLVESGGGLVQAGASLTLSCAASGFTFNTRSIVWFRQAPGKEREAVSCISKVAGSTYYGDSVQGRFSSSTDNAKNTVSLQMNSLKPEDTAVYTCAASFAPNCYGWSVAANMEYWGEGTMVTVSS |  | no binding | < 10 pM | < 1e-07 s⁻¹ | 260000 M⁻¹ s⁻¹ |  |  | no binding (tested: 500 ng VHH)
4 | E06 His (VHH, not shown: small tags and cut ends) VHH: QVHLVESGGGLVQAGGSLRLSCAASRRSFSEYAMGWFRQAPGKEREFVAAIGWSGVIEYADSVKGRFTISRDNAKDTVYLQMNSLKPEDTAVYYCAAGLGIRVVSQTPAYWGQGTQVTVSS | 83.4 pM | no binding | < 10 pM | < 1e-07 s⁻¹ | 106000 M⁻¹ s⁻¹ | 8.75e-05 s⁻¹ | 1.05e+06 M⁻¹ s⁻¹ | no binding (tested: 500 ng VHH)
5 | F08 His (VHH, not shown: small tags and cut ends, also called #269) VHH: QVQLVESGGGSVQAGGSLRLSCAASGPSLSNYAMGWFRQAPGKEREFVAGISWGGGRTSYTDSVKGRFTISRDNAKNTVYLQMNNLKPEDTGVYYCAGRYGRGRNVEYEYDYWGQGTQVTVSS | < 10 pM | no binding | < 10 pM | < 1e-07 s⁻¹ | 252000 M⁻¹ s⁻¹ | < 1e-07 s⁻¹ | 684000 M⁻¹ s⁻¹ | 
6 | D10 His (VHH, not shown: small tags and cut ends) VHH: QVQLVESGGGLVQPGGSLRLSCAASGSIFSVNTMGWYRQAPGKQRDLVAVATSGGTIHYADSVKGRFTISRDNAKNTVYLQMNSLKPEDTAVYYCNLVVPYGMIAGDHDYWGQGTKVTVSS | 1220 pM | no binding | 200 pM | 1.3e-05 s⁻¹ | 67300 M⁻¹ s⁻¹ | 0.0028 s⁻¹ | 2.3e+06 M⁻¹ s⁻¹ | no binding (tested: 500 ng VHH)
7 | A06 His (VHH, not shown: small tags and cut ends, also called #250) VHH: QVHLVESGGGLVQAGGSLRLSCAASGRTFLSMGWFRQAPGKEREFVAAISWTGGSTGYADSVKGRFTISRESDKETMYLQMNSLKPEDTAVYYCAARGDVYYGGDDATRYKYWGQGTQVTVSS | 5040 pM | no binding | 1320 pM | 0.000154 s⁻¹ | 117000 M⁻¹ s⁻¹ | 0.000672 s⁻¹ | 133000 M⁻¹ s⁻¹ | no binding (tested: 500 ng VHH)
8 | E10 His (VHH, not shown: small tags and cut ends, also called #265) VHH: QVQLVESGGGLVQAGGSLRLSCAVSGRALSDYNIGWFRQAPGKEREFVARKTWDGSSTRYDDSVKGRFTVSIEDAKNTAYLQMSSLKTEDTAVYYCAAGRYSRARGWEYDYWGQGTQVTVSS | 86.2 pM | no binding | < 10 pM | < 1e-07 s⁻¹ | 54200 M⁻¹ s⁻¹ | 0.000141 s⁻¹ | 1.64e+06 M⁻¹ s⁻¹ | no binding (tested: 500 ng VHH)
9 | F05 His (VHH, not shown: small tags and cut ends) VHH: QVQLVESGGGLVQAGGSLRLSCAASGRAFGDYNIGWFRQAPGKEREFVARRTWDGSSTRYDDSVKGRFTVSIDNAKNTAYLQMNSLKTEDTAVYYCAAGRYSRVRGWEYDYWGQGTQVTVSS | 95.4 pM | no binding | < 10 pM | < 1e-07 s⁻¹ | 13900 M⁻¹ s⁻¹ | 0.000356 s⁻¹ | 3.74e+06 M⁻¹ s⁻¹ | no binding (tested: 500 ng VHH)
